Test results taken from paper PMC3223566.

Tests used:
[1] = target: RNAPΔRpo4/7, ten-subunit RNAP subassembly lacking Rpo4/7 (M. jannaschii) (UniProt Q58443)
[2] = target: M. jannaschii RNA polymerase, wild type, reconstituted from 12 recombinant subunits (M. jannaschii) (UniProt Q58443)
[3] = target: M. jannaschii RNA polymerase, wild type, reconstituted from 12 recombinant subunits (M. jannaschii) (UniProt Q58443); assay: native gel or EMSA; competition in the PIC: Spt4/5 (0, 16, 32, 137 μM) added to preformed PICs (DNA, TBP, TFB, RNAP) with fluorescently labeled TFE (0.75 μM)
[4] = target: M. jannaschii RNA polymerase, wild type, reconstituted from 12 recombinant subunits (M. jannaschii) (UniProt Q58443); remark: listed apart in the source
[5] = target: M. jannaschii RNA polymerase, wild type, reconstituted from 12 recombinant subunits (M. jannaschii) (UniProt Q58443); remark: listed apart in the source
[6] = target: M. jannaschii RNA polymerase, wild type, reconstituted from 12 recombinant subunits (M. jannaschii) (UniProt Q58443); assay: native gel or EMSA; competition: Spt4/5 or Spt4/5^A4R (0.33, 1, 7.5, 25 μM) added to a preformed complex of free RNAP and TFE^133*DL549 (0.74 μM)
[7] = target: M. jannaschii RNA polymerase, wild type, reconstituted from 12 recombinant subunits (M. jannaschii) (UniProt Q58443); assay: native gel or EMSA; competition in the TEC: RNAP (0.21 μM), NTS (20 μM), TS (15 μM), RNA (68 μM), TFE^G133*DL549 (0.74 μM), Spt4/5 or Spt4/5^A4R (1, 2.5, 15 μM)

| stimulation of promoter-directed transcription by TFE (8 μM) [1] | stimulation of promoter-directed runoff transcription by TFE (0, 0.32, 8 μM) [2] | IC50 [3] | inhibition of transcript synthesis in promoter-directed transcription, Spt4/5 at 55.2 μM [4] | inhibition of promoter-directed runoff transcription by minimal complexes (DNA, TBP, TFB, RNAP; no TFE) [5] | IC50 [6] | IC50 [7] | Binder |
| --- | --- | --- | --- | --- | --- | --- | --- |
| < 1.2 fold | 5 fold | – | – | – | – | – | TFE (archaeal transcription initiation factor E), unlabeled wild type (natural protein) MLNDPLVQEVLFNIFEGDEKGFEVIDVLLEKGETTEEEIAKELGVKLNVVRKLLYKLYDARLVDYKRWKDEDTNWYSYTWLPTLEKLPYVVKKKINELIKDLEKKLEFEKNNMFFFCPNCNVRFTFEEAMDYGFSCPGCGNMLQEFDNSELIKDLEEQIKFLKEELKNNPFLK |
| – | – | 29000 nM | > 10 fold | 9.6 µM | 550 nM | 790 nM | Spt4/5, transcription elongation factor, wild type (complex) chain 1: MRACLKCKYLTNDEICPICHSPTSENWIGLLIVINPEKSEIAKKAGIDIKGKYALSVKE chain 2: MIFAVRTMVGQEKNIAGLMASRAEKEQLDVYSILASESLKGYVLVEAETKGDVEELIKGMPRVRGIVPGTIAIEEIEPLLTPKKIIENIEKGDVVEIIAGPFKGERAKVIRVDKHKEEVTLELENAAVPIPITLPVEGVKIVSKHKD |
